Where “and” joins values, the source holds several entries; their conditions need not be identical. Identical values can stand only once. Non-standard residues stand in square brackets, D forms with d. *: point of attachment. FITC = O=C1OC2(c3ccc(O)cc3Oc3cc(O)ccc32)c2ccc(NC(=S)*)cc21; pS = N[C@@H](COP(=O)(O)O)C(=O)O
T1: MDM2 179-193 (Homo sapiens, UniProt Q00987)
T1 chain: {FITC}-RQRKRHK[pS]DSISLSF-NH2

T2: MDM2 159-173 (Homo sapiens, UniProt Q00987)
T2 chain: {FITC}-SSRRRAI[pS]ETEENSD-NH2

T3: MDM2 179-193 (Homo sapiens, UniProt Q00987)
T3 chain: {FITC}-RQRKRHK[pS]DSISLSF-NH2

B1: 14-3-3σ (protein)
chain: MERASLIQKAKLAEQAERYEDMAAFMKGAVEKGEELSCEERNLLSVAYKNVVGGQRAAWRVLSSIEQKSNEEGSEEKGPEVREYREKVETELQGVCDTVLGLLDSHLIKEAGDAESRVFYLKMKGDYYRYLAEVATGDDKKRIIDSARSAYQEAMDISKKEMPPTNPIRLGLALNFSVFHYEIANSPEEAISLAKTTFDEAMADLHTLSEDSYKDSTLIMQLLRDNLTLWTADNAGEEGGEAPQEPQS
B2: 14-3-3ζ (protein)
chain: MDKNELVQKAKLAEQAERYDDMAACMKSVTEQGAELSNEERNLLSVAYKNVVGARRSSWRVVSSIEQKTEGAEKKQQMAREYREKIETELRDICNDVLSLLEKFLIPNASQAESKVFYLKMKGDYYRYLAEVAAGDDKKGIVDQSQQAYQEAFEISKKEMQPTHPIRLGLALNFSVFYYEILNSPEKACSLAKTAFDEAIAELDTLSEESYKDSTLIMQLLRDNLTLWTSDTQGDEAEAGEGGEN

Assays:
Assay in all cases: FP
MDM2 159-193 = MDM2 159-193 (Homo sapiens, UniProt Q00987, pS186, N-terminal FITC)
Sequence of MDM2 159-193 (Q00987 159-193): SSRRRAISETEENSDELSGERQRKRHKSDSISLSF

MDM2 179-193 [1] = biological target: T1, MDM2 179-193
MDM2 159-173 = biological target: T2, MDM2 159-173
MDM2 179-193 [2] = biological target: T3, MDM2 179-193

Binder | Kd (MDM2 159-193) [µM] | Kd (MDM2 179-193 [1]) | Kd (MDM2 159-173) [µM] | Kd (MDM2 179-193 [2]) [µM]
B1 | > 124 | 24.6 µM and ~26.2 µM | > 115 | 10.8
B2 |  | 11.4 µM |  | 

Source: paper PMC10864208 (2024)
